Residue numbers refer to the chain shown, from its start. Names and notes keep the numbering of the source.
B1: 131 (protein)
chain: MSLTKIDAYAHILPAKYYQKMLSVEPNIPNMFPFIKIKTLMDLDERLTKWPDQNTKQVISLANISPEDFTDSKTSAELCQSANEELSNLVDQHPGKFAGAVAILPMNNIESACKVISSIKDDENLVGAQIFTRHLGKSIADKEFRPVLAQAAKLHVPLWMHPVFDARKPDNNLVFSWEYELSQAMLQLVQSDLFQDYPNLKILVHHAGAMVPFFSGRIDHILDEKHAQDFKKFYVDTAILGNTPALQLAIDYYGIDHVLFGTDAPFAVMPSGADQIITQAINDLTISDKDKQKIFHDNYYSLIKEGHHHHHH
modifications: Lactobacillus Acidophilus
B2: 132 (protein)
chain: SLLRFSAVSRHHRGASIDPMTFSEATTPDALTPDAHTPRLLTCDVLYTGMGGAQSPGGVVVVGETVAAAGHPDELRRQYPHAAEERAGAVIAPPPVNAHTHLDMSAYEFQALPYFQWIPEVVIRGRHLRGVAAAQAGADTLTRLGAGGVGDIVWAPEVMDALLAREDLSGTLYFEVLNPFPDKADEVFAAARTHLERWRRLERPGLRLGLSPHTPFTVSHRLMRLLSDYAAGEGLPLQIHVAEHPTELEMFRTGGGPLWDNRMPALYPHTLAEVIGREPGPDLTPVRYLDELGVLAARPTLVHMVNVTPDDIARVARAGCAVVTCPRSNHHLECGTFDWPAFAAAGVEVALGTDSVASGETLNVREEVTFARQLYPGLDPRVLVRAAVKGGQRVVGGRTPFLRRGETWQEGFRWELSRDL
modifications: Deinococcus Radiodurans
B3: 130 (protein)
chain: MGSSHHHHHHSSGRENLYFQGMKSITFEEHYVIEDIQKETMNAISADPKGVPMKVMLEGLEKKTGFTNADELSHHDERIQFMNNQDVQIQVLSYGNGSPSNLVGQKAIELCQKANDQLANYIAQYPNRFVGFATLPINEPEAAAREFERCINDLGFKGALIMGRAQDGFLDQDKYDIIFKTAENLDVPIYLHPAPVNSDIYQSYYKGNYPEVTAATFACFGYGWHIDVGIHAIHLVLSGIFDRYPKLNMIIGHWGEFIPFFLERMDEALFAEHLNHSVSYYFKNSFYITPSGMLTKPQFDLVKKEVGIDRILYAADYPYIEPEKLGVFLDELGLTDEEKEKISYTNGAKLLGLSSNN
modifications: Staphylococcus Aureus
B4: D299A: point mutant of SEQ ID NO: 109 (protein)
chain: MAQGKVALEEHFAIPETLQDSAGFVPGDYWKELQHRLLDIQDTRLKLMDAHGIETMILSLNAPAVQAIPDRRKAIEIARRANDVLAEECAKRPDRFLAFAALPLQDPDAATEELQRCVNDLGFVGALVNGFSQEGDGQTPLYYDLPQYRPFWGEVEKLDVPFYLHPRNPLPQDSRIYDGHPWLLGPTWAFAQETAVHALRLMASGLFDEHPRLNIILGHMGEGLPYMMWRIDHRVAWVKLPPRYPAKRRFMDYFNENFHITTSGNFRTQTLIDAILEIGADRILFSTDWPFENIDHASAWFNATSIAEADRVKIGRTNARRLFKLDGA
modifications: Dicamba decarboxylase variant clone: DC.4.032
B5: W30L: point mutant of SEQ ID NO: 109 (protein)
chain: B4 chain with W30L, A299D
modifications: Dicamba decarboxylase variant clone: DC.4.032
B6: D42A: point mutant of SEQ ID NO: 109 (protein)
chain: B4 chain with D42A, A299D
modifications: Dicamba decarboxylase variant clone: DC.4.032
B7: A328R: point mutant of SEQ ID NO: 109 (protein)
chain: B4 chain with A299D, A328R
modifications: Dicamba decarboxylase variant clone: DC.4.032
B8: R321N: point mutant of SEQ ID NO: 109 (protein)
chain: B4 chain with A299D, R321N
modifications: Dicamba decarboxylase variant clone: DC.4.032
B9: G52E: point mutant of SEQ ID NO: 109 (protein)
chain: B4 chain with G52E, A299D
modifications: Dicamba decarboxylase variant clone: DC.4.032
B10: A303E: point mutant of SEQ ID NO: 109 (protein)
chain: B4 chain with A299D, A303E
modifications: Dicamba decarboxylase variant clone: DC.4.032
B11: A328D: point mutant of SEQ ID NO: 109 (protein)
chain: B4 chain with A299D, A328D
modifications: Dicamba decarboxylase variant clone: DC.4.032
B12: L38I: point mutant of SEQ ID NO: 109 (protein)
chain: B4 chain with L38I, A299D
modifications: Dicamba decarboxylase variant clone: DC.4.032
B13: D42M: point mutant of SEQ ID NO: 109 (protein)
chain: B4 chain with D42M, A299D
modifications: Dicamba decarboxylase variant clone: DC.4.032
B14: T43C: point mutant of SEQ ID NO: 109 (protein)
chain: B4 chain with T43C, A299D
modifications: Dicamba decarboxylase variant clone: DC.4.032
B15: G27A: point mutant of SEQ ID NO: 109 (protein)
chain: B4 chain with G27A, A299D
modifications: Dicamba decarboxylase variant clone: DC.4.032
B16: G27S: point mutant of SEQ ID NO: 109 (protein)
chain: B4 chain with G27S, A299D
modifications: Dicamba decarboxylase variant clone: DC.4.032
B17: D20F: point mutant of SEQ ID NO: 109 (protein)
chain: B4 chain with D20F, A299D
modifications: Dicamba decarboxylase variant clone: DC.4.032
B18: G27T: point mutant of SEQ ID NO: 109 (protein)
chain: B4 chain with G27T, A299D
modifications: Dicamba decarboxylase variant clone: DC.4.032
B19: G327Q: point mutant of SEQ ID NO: 109 (protein)
chain: B4 chain with A299D, G327Q
modifications: Dicamba decarboxylase variant clone: DC.4.032
B20: A50K: point mutant of SEQ ID NO: 109 (protein)
chain: B4 chain with A50K, A299D
modifications: Dicamba decarboxylase variant clone: DC.4.032
B21: N302A: point mutant of SEQ ID NO: 109 (protein)
chain: B4 chain with A299D, N302A
modifications: Dicamba decarboxylase variant clone: DC.4.032
B22: D42S: point mutant of SEQ ID NO: 109 (protein)
chain: B4 chain with D42S, A299D
modifications: Dicamba decarboxylase variant clone: DC.4.032

assay: Saturation mutagenesis of SEQ ID NO:109: dicamba decarboxylation activity of point mutants (carbon dioxide released); conditions: decarboxylation activity (carbon dioxide released) of point mutant compared with unmutated backbone protein; backbone SEQ ID NO: 109

| Molecule | Fold Activity |
| --- | --- |
| B1 | 1.6 |
| B2 | 1.6 |
| B3 | 1.2 |

same assay, conditions: dicamba decarboxylation activity of point mutants of SEQ ID NO: 109, relative to unchanged template

| Molecule | Average Activity (Fold of SEQ ID NO: 109) |
| --- | --- |
| B4 | 2.0 Fold of SEQ ID NO: 109 |
| B5 | 1.7 Fold of SEQ ID NO: 109 |
| B6 | 2.0 Fold of SEQ ID NO: 109 |
| B7 | 3.0 Fold of SEQ ID NO: 109 |
| B8 | 1.7 Fold of SEQ ID NO: 109 |
| B9 | 3.1 Fold of SEQ ID NO: 109 |
| B10 | 2.3 Fold of SEQ ID NO: 109 |
| B11 | 2.3 Fold of SEQ ID NO: 109 |
| B12 | 2.0 Fold of SEQ ID NO: 109 |
| B13 | 2.4 Fold of SEQ ID NO: 109 |
| B14 | 1.7 Fold of SEQ ID NO: 109 |
| B15 | 2.0 Fold of SEQ ID NO: 109 |
| B16 | 2.2 Fold of SEQ ID NO: 109 |
| B17 | 1.9 Fold of SEQ ID NO: 109 |
| B18 | 2.0 Fold of SEQ ID NO: 109 |
| B19 | 2.8 Fold of SEQ ID NO: 109 |
| B20 | 1.9 Fold of SEQ ID NO: 109 |
| B21 | 1.9 Fold of SEQ ID NO: 109 |
| B22 | 2.0 Fold of SEQ ID NO: 109 |

same assay, conditions: point mutation in SEQ ID NO: 109

| Molecule | Average Activity (Fold of SEQ ID NO: 109) |
| --- | --- |
| B5 | 1.7 Fold of SEQ ID NO: 109 |
| B8 | 1.7 Fold of SEQ ID NO: 109 |
| B9 | 3.1 Fold of SEQ ID NO: 109 |
| B11 | 2.3 Fold of SEQ ID NO: 109 |
| B12 | 2.0 Fold of SEQ ID NO: 109 |
| B13 | 2.4 Fold of SEQ ID NO: 109 |
| B14 | 1.7 Fold of SEQ ID NO: 109 |
| B16 | 2.2 Fold of SEQ ID NO: 109 |
| B17 | 1.9 Fold of SEQ ID NO: 109 |
| B19 | 2.8 Fold of SEQ ID NO: 109 |
| B20 | 1.9 Fold of SEQ ID NO: 109 |
| B21 | 1.9 Fold of SEQ ID NO: 109 |

From patent US20160053277A1, “Compositions Having Dicamba Decarboxylase Activity and Methods of Use” (PIONEER HI-BRED INTERNATIONAL, INC., priority 2013, published 2016)
